Test results as given in PMC5681435 (2017).

What was measured:
[1] = molecular target: GSTCDK6 (human, UniProt Q00534 1-326); test: SPR
[2] = molecular target: T1, GSTCDK4 (human, UniProt P11802 1-303); test: SPR
T1 chain: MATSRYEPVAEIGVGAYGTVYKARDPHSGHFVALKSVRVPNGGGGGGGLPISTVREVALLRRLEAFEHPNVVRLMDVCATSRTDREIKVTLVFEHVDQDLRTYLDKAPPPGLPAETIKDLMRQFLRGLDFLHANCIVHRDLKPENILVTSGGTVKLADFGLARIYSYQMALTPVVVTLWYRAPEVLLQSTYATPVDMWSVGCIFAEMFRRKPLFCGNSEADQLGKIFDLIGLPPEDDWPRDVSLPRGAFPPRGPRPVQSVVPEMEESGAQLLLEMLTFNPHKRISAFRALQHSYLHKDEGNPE

Sequence of GSTCDK6 (Q00534 whole entry): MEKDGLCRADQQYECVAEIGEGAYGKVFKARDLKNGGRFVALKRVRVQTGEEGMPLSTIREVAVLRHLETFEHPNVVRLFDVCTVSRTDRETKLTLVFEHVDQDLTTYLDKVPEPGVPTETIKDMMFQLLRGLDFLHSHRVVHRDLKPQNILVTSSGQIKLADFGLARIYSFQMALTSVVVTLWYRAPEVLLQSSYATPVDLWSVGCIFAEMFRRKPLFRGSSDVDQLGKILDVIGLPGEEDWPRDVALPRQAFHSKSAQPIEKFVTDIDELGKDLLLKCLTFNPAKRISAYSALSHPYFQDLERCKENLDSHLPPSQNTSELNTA

- Kd [1]: 7 µM
- Kd [2]: 0.347 µM
B1: Cdc37 (analyte of the SPR titrations) (natural protein)
chain: MVDYSVWDHIEVSDDEDETHPNIDTASLFRWRHQARVERMEQFQKEKEELDRGCRECKRKVAECQRKLKELEVAEGGKAELERLQAEAQQLRKEERSWEQKLEEMRKKEKSMPWNVDTLSKDGFSKSMVNTKPEKTEEDSEEVREQKHKTFVEKYEKQIKHFGMLRRWDDSQKYLSDNVHLVCEETANYLVIWCIDLEVEEKCALMEQVAHQTIVMQFILELAKSLKVDPRACFRQFFTKIKTADRQYMEGFNDELEAFKERVRGRAKLRIEKAMKEYEEEERKKRLGPGGLDPVEVYESLPEELQKCFDVKDVQMLQDAISKMDPTDAKYHMQRCIDSGLWVPNSKASEAKEGEEAGPGDPLLEAVPKTGDEKDVSV
